Patent US10287317B2, “Proprotein convertase subtilisin kexin type 9 (PCSK9) allosteric binding ligands to modulate serum low density lipoprotein (LDL) levels” (SRX Cardio, LLC, priority 2013, dated 2019)
Where no end group is shown, it is not given here.

Legend:
PCSK9-WT protein = molecular target: T1, PCSK9-WT protein (Homo sapiens, UniProt Q8NBP7); test: Cellular diI-LDL uptake in HuH7 cells with PCSK9-WT; format: cell-based; details: HuH7, 1.0 μg/ml PCSK9-WT, 100 uM peptide (FIG. 2)
T1 construct: V5
T1 sequence (Q8NBP7 153-692): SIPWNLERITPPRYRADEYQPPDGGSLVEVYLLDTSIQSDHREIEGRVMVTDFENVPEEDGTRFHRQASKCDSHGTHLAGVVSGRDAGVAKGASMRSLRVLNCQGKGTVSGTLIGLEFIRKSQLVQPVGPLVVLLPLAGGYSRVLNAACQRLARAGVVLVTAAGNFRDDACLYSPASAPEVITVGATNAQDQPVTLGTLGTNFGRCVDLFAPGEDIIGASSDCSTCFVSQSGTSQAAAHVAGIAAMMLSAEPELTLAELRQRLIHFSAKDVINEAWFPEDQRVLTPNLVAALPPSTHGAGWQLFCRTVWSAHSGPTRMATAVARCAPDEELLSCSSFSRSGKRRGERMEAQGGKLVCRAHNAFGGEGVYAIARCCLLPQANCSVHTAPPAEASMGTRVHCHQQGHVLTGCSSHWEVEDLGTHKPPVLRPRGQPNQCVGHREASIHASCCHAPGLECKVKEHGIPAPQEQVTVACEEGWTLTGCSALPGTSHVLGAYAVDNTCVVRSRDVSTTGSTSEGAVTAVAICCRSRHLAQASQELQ
Experimental: HuH7 cells were incubated in a 96-well plate for a total of 20 h in the absence (Cnt) or presence of 1.0 μg/ml PCSK9-WT protein alone (WT) or mixed with 100 uM of various SRX peptides. After 16 h, dil-LDL (5 ug/ml) was added to the incubation mixtures. After 4 h, fluorescence was measured (Ex: 520 nm/Em: 575 nm; cutoff: 550 nm). Dil-LDL uptake is calculated as RFU corrected for the number of cells.
(§1) LDL internalization was measured by uptake of a fluorescently tagged LDL molecule (diI-LDL) in the absence of exogenous PCSK9 (Cnt), in the presence of exogenous PCSK9 (normal PCSK9=WT, D374Y mutant PCSK9=DY), or in the presence of PCSK9 and a tested peptide (indicated as SRX##, or SRX if a single peptide results is shown in a graph).
Cells, such as HepG2, HuH7, FL83B or a cell line transfected with a short-hairpin PCSK9 knockdown sequence such as HepG2/shPCSK9, HuH7/shPCSK9, FL83B/shPCSK9, were seeded at 2×10^4 cells/well in a 96-well plate and cultured at 37 degC in RPMI+10% FBS. After approximately 24 hours, the cell media was aspirated off and replaced with RPMI+3-5 mg/mL LPDS (Lipoprotein Deficient Serum, Millipore) media for further experimentation. Benjannet et al., “Effects of the prosegment and pH on the activity of PCSK9: evidence for additional processing events” J Biol Chem. 285(52): 40965-40978 (2010).
Peptide activity was assessed by culturing cells with: i) no SRX peptide/PCSK9 protein complex (control, Cnt); ii) PCSK9 protein; and iii) SRX peptide/PCSK9 complex. Various permutations of these experimental conditions were also used, including: i) the addition of wild type PCSK9 (WT); ii) a mutant PCSK9 (e.g., D374Y mutant PCSK9, DY); iii) various SRX peptides and/or PCSK9 at the same concentration and/or combinations; iv) various SRX peptides and/or PCSK9 at different concentrations and/or combinations; v) the use of different cells, as mentioned above, with or without a transfected short-hairpin sequence; vi) a pre-incubation of the PCSK9 and SRX peptide (e.g., 1, hour, 2 hours, 3 hours, 4 hours etc.); vii) various temperatures including, but not limited to, body temperature (e.g., 37° C.), supraphysiologic temperature (e.g., 39° C.); and viii) with/without agitation (e.g., shaker or gentle periodic vortexing).
Cells were cultured using one of the combinations of conditions described in the preceding paragraph for 16 hours. After 16 hours, a quantity of diI-LDL (Low density lipoprotein coupled with 1,1′-dioctadecyl-3,3,3′,3′-tetramethylindocarbocyanine perchlorate) needed to bring the media concentration to 5 ug/mL of diI-LDL was added to the culture well and cells continued to be cultured under these new conditions for 4 additional hours. At the end of the 4-hour incubation period (20 total hours of cell culture), the cellular uptake was halted with the addition of 4% formaldehyde in 10 uM Hoechst 33342 in a solvent such as deionized autoclaved water or PBS, and specimens were incubated at 20° C. for 20 minutes. Cell specimens were rinsed twice with PBS and then fluorescence measured with excitation at 360 nm and emission detected at 460 nm to measure DNA content. Cell specimens were then be incubated with a 0.1% SDS in a 0.1 N NaOH solution while being shaken for 10 minutes. Fluorescence of the diI-LDL in the specimens were quantified using excitation at 530 nm and resulting emission at 580 nm.
Fluorescence measurements of diI-LDLR were normalized to estimated cell numbers, determined from the Hoechst fluorescence. Data was analyzed for the different experimental conditions and reported as percentage relative fluorescence units (RFU) of the Cnt specimen. Percent inhibition was calculated as the difference in RFU of a peptide exposed specimen to the RFU of PCSK9-no peptide, divided by the RFU difference in PCSK9-no peptide to RFU of Cnt specimen, also expressed as [(SRX:RFU)−(PCSK9-no peptide:RFU)]/[(PCSK9-no peptide:RFU)−(Cnt:RFU)]×100.

D374Y PCSK9 (DY) = D374Y PCSK9 (DY) (Homo sapiens, UniProt Q8NBP7, D374Y); test: Cellular diI-LDL uptake in FL-83B cells with D374Y PCSK9; format: cell-based, mouse; details: FL83B, D374Y 0.6 ug/ml, pre-incubated 3 hrs at 37 C, dose dependent manner (FIG. 7)
Chain of D374Y PCSK9 (DY) (Q8NBP7 153-692 D374Y): as the sequence (Q8NBP7 153-692) above, with D222Y counted along it
Experimental: (§2) After 16 h, dil-LDL (5 ug/ml) was added to the incubation mixtures. After 4 h, fluorescence was measured (Ex: 520 nm/Em: 575 nm; cutoff: 550 nm). Dil-LDL uptake is calculated as RFU corrected for the number of cells. The PCSK9 and −/+SRX55 [SEQ ID NO: 2] mixtures were pre-incubated for 3 hrs at 37 C prior to addition to the cells.
as §1, with “graph). […]” for “graph).”
(§3) Peptide activity was assessed by culturing cells with: i) no SRX peptide/PCSK9 protein complex (control, Cnt); ii) PCSK9 protein; and iii) SRX peptide/PCSK9 complex. […]
(§4) Cells were cultured using one of the combinations of conditions described in the preceding paragraph for 16 hours. After 16 hours, a quantity of diI-LDL (Low density lipoprotein coupled with 1,1′-dioctadecyl-3,3,3′,3′-tetramethylindocarbocyanine perchlorate) needed to bring the media concentration to 5 ug/mL of diI-LDL was added to the culture well and cells continued to be cultured under these new conditions for 4 additional hours. […] Fluorescence of the diI-LDL in the specimens were quantified using excitation at 530 nm and resulting emission at 580 nm. […]

normal PCSK9 (WT) = normal PCSK9 (WT) (Homo sapiens, UniProt Q8NBP7); test: Cellular diI-LDL uptake in FL-83B cells with WT PCSK9; format: cell-based, mouse; details: FL83B, WT 1.2 ug/ml, pre-incubated 3 hrs at 37 C, dose dependent manner (FIG. 7)
Chain of normal PCSK9 (WT) (Q8NBP7 153-692): as the sequence (Q8NBP7 153-692) above
Experimental: as §2
as §1, with “graph). […]” for “graph).”
as §3, §4

Measured: LDL internalization (dil-LDL % uptake vs Cnt)

Val-Tyr-Val-Arg-Phe-Trp (VYVRFW; not fully specified (C-terminus); printed as Val-Tyr-Val-Arg-Phe-Trp) [Compound 1]
positively modulated (increased): PCSK9-WT protein | D374Y PCSK9 (DY) | normal PCSK9 (WT)
